Experimental data reported in the nanobody polyreactivity screen of Harvey et al. (2022).

Assay: yeast display, Sf9 membrane polyspecificity reagent, FACS + sequencing; frameworks hold sequencing errors
Method in brief: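 Polyreactivity labels are assigned by the sorting gate from which each nanobody was recovered. The gates were low and high (top ~1%), set on anti-HA fluorescence for expression and streptavidin fluorescence for reagent binding. Before sorting, galactose-induced (36–48 hours) yeast display cells were stained for 1 hour at 4 °C with 10% biotinylated, detergent-solubilized Sf9 membrane reagent.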
For “QVQLVESGGGLVQAGGSLRLSCAASGSIFKKYAMGWYRQAPGKERELVAAISKSGGSTYYADSVKGRFTISRDNAKNTVYLQMNSLKPDDTAVYYCAAAAGGSAYWDYDYWGQGTQVTVSS”, the “polyreactivity (PSR sort gate)” value was “low polyreactivity”. In the case of “QVQLVESGGGLVQAGGSLRLSCAASGSIFKLYSMGWSRQAPGKERELVATIRWSGGSTYYADSVKGRFTISRDNAKNTVYLQMNSLKPEDTAVYYCAARRVRPNGYTSSPLDYWGQGTQVTVSS”, the “polyreactivity (PSR sort gate)” value is reported as “high polyreactivity”. In the case of “QVQLVESGGGLVQAGGSLRLSCAASGSIFKPYAMGWYRQAPGKERELVAAISGIGGSTYYADSVKGRFTISRDNAKNTVYLQMNCLKPEDTAVYYCAADTFFKIFSEYNYWGQGTQVTVSS”, the “polyreactivity (PSR sort gate)” value is reported as “high polyreactivity”. For “QVQLVESGGGLVQAGGSLRLSCAASGSIFKPYAMGWYRQAPGKERELVAAISRSGSTYYADSVKGRFTISRDNAKNSVYLQMNSLKPEVTAVFYCAAETQARWRRYDYWGQGSQVTVSS”, the “polyreactivity (PSR sort gate)” value was “low polyreactivity”. With “QVQLVESGGGLVQAGGSLRLSCAASGSIFKPYAMGWYRQAPGKERELVAVISSGGSTNYADSVKGRFTISRDNAKNTVYLQMNSLKPEDTAVYYCAAEDQYGYDYWGQGTQVTVSS” the “polyreactivity (PSR sort gate)” value was “high polyreactivity”. For “QVQLVESGGGLVQAGGSLRLSCAASGSIFKRNAMGWYRQAPGKERELVAAITGGGRTNYADSVKGRFTISRDNAKNTVYLQMNSLNPEDTAVYYCAADWYGVGLYYTWTRHDYWGQGTQVTVSS”, the “polyreactivity (PSR sort gate)” value was “low polyreactivity”. With “QVQLVESGGGLVQAGGSLRLSCAASGSIFKRNAMGWYRQAPGKERELVAAITSSGGTTYYADSVKGRFTISRDNAKNTVYLQMNSLKPEDTAVYYCNAGYGVRSVRRFDYWGQGTQVTVSS” the “polyreactivity (PSR sort gate)” value was “high polyreactivity”. For “QVQLVESGGGLVQAGGSLRLSCAASGSIFKRYAMGWYRQAPGKERELVAAITYNGGSTYYADSVKGRFTISRDNAKNTVYLQMNSLKPEDTAVYYCAAERYNGYDYWGQGTQVTVSS”, the “polyreactivity (PSR sort gate)” value was “high polyreactivity”. In the case of “QVQLVESGGGLVQAGGSLRLSCAASGSIFKSNAMGWYRQAPGKERELVAAISNGGITNYADSVKGRFTISRDNAKNSVYLQMNSLKPEDTAVYYCATSDVREIWVDYWGQGTQVTVSS”, the “polyreactivity (PSR sort gate)” value is reported as “low polyreactivity”. In the case of “QVQLVESGGGLVQAGGSLRLSCAASGSIFKSNGMGWYRQAPGKERELVAAITGSGGTTYYADSVKGRFTISRDNAKNTVYLQMNSLKPEDTAVYYCAADIYWYPTYYYWGQGTQVTVSS”, the “polyreactivity (PSR sort gate)” value is reported as “low polyreactivity”. With “QVQLVESGGGLVQAGGSLRLSCAASGSIFKVNVMGWYRQAPGKERELVAAISRSGGNTYYADSVKGRFTISRDNAKNTVYLQMNSLKPEDTAVYYCATGASYLRRYDHPHSDVDYWGQGTQVTVSS” the “polyreactivity (PSR sort gate)” value was “low polyreactivity”. With “QVQLVESGGGLVQAGGSLRLSCAASGSIFKVYAMGWYRQAPGKERELVAAITGSGGSTYYADSVKGRFTISRDNAKNTVYLQMNSLKPEDTAVYYCNTDYYYSGYFRRFDYWGQGTQVTVSS” the “polyreactivity (PSR sort gate)” value was “high polyreactivity”. In the case of “QVQLVESGGGLVQAGGSLRLSCAASGSIFKWYAMGWYRQAPGKERALVATISSSGSSTYYADSVKGRLTISRDNAKNTVYLQMNSLKPEDTAVYYCATTYGWRYPAMDYWGQGTQVTVSS”, the “polyreactivity (PSR sort gate)” value is reported as “high polyreactivity”. In the case of “QVQLVESGGGLVQAGGSLRLSCAASGSIFKWYAMGWYRQAPGKERELVASITWSGGSTYYADSVKGRFTISRDNAKNTVYLQMNSLKPEDTAVYYCNALSWVRGDYWGQGTQVTVSS”, the “polyreactivity (PSR sort gate)” value is reported as “low polyreactivity”. For “QVQLVESGGGLVQAGGSLRLSCAASGSIFKWYAMGWYRQAPGKERELVAVISSGGNTYYADSVKGRFTISRDNAKNTVYLQMNSLKPEDTAVYYCAARVTSHMYYWGQGTQVTVSS”, the “polyreactivity (PSR sort gate)” value was “high polyreactivity”. For “QVQLVESGGGLVQAGGSLRLSCAASGSIFKYNAMGWYRPAPGKERELVAAISWSGGSTRYADSLKGRFTISRDNATNTGYLQMNSLKPEDTAVYYCAAKHGRNYAANALYGYWGQGTQVTVSS”, the “polyreactivity (PSR sort gate)” value was “high polyreactivity”. With “QVQLVESGGGLVQAGGSLRLSCAASGSIFKYNAMGWYRQAPGKERQLVAAISSSGGYTSYADSVKGRFTISRDNAKNTVYLQMNSLKPEDTAVYYCNAPYLIYKKGRYDYWGQGTQVTVSS” the “polyreactivity (PSR sort gate)” value was “high polyreactivity”. For “QVQLVESGGGLVQAGGSLRLSCAASGSIFKYNPMGWDRQAPGKERELVAAITYRGASTYYADSVKGRFTISRDNAKNTVYLQMNSLKPEDTAVYYCNAKVRKSRFYYWGQGTQVTVSS”, the “polyreactivity (PSR sort gate)” value was “high polyreactivity”. With “QVQLVESGGGLVQAGGSLRLSCAASGSIFKYYAMGWYRQAPGKERELVAAIDWSGGNTYADSVKGRFTISRDNAKNTVYLQMNSLKPEDTAVYYCNAPGFRRLWGFGYDYWGQGTQVTVSS” the “polyreactivity (PSR sort gate)” value was “high polyreactivity”. For “QVQLVESGGGLVQAGGSLRLSCAASGSIFKYYAMGWYRQAPGKERELVAAISTGGTTNYADSVKGRFTISRDNAKKTVYLQMNSLKPDDTAVYYCNRDFLVRSRYKYYYWGQGTQVTVSS”, the “polyreactivity (PSR sort gate)” value was “low polyreactivity”. In the case of “QVQLVESGGGLVQAGGSLRLSCAASGSIFKYYTIGWYRQAPGKERELVAAISWSGGRTYYADSVKGRFTISRDIAKNTVYLQMNSLKPEDTAVYYCAKYVSYSRTLYDYWGQGTKVTVSS”, the “polyreactivity (PSR sort gate)” value is reported as “high polyreactivity”. In the case of “QVQLVESGGGLVQAGGSLRLSCAASGSIFKYYTMGWYRQAPGKEREFVAAITRSGGSTYYADSVKGRFTISRDNAKNTVYLQMNSLKPEDTAVYYCAARTIRDQTVRFGHWGQGTQVTVSS”, the “polyreactivity (PSR sort gate)” value is reported as “high polyreactivity”. For “QVQLVESGGGLVQAGGSLRLSCAASGSIFKYYTMGWYRQAPGKERELVAAISWRGGSTYYADSVKGRFTISRDNAKNTVYLQMNSLKPEDTAVYYCAAKSYYNYYYWGQGTQVTVSS”, the “polyreactivity (PSR sort gate)” value was “high polyreactivity”. For “QVQLVESGGGLVQAGGSLRLSCAASGSIFKYYTRGWYRQAPGKERELVAAISGSGGTTYYADSVKGRFTISRDNAKNTVYLQMNSLKPEDTAVYYCATAYYRAFRGDYWGQGTQVTVSS”, the “polyreactivity (PSR sort gate)” value was “high polyreactivity”. With “QVQLVESGGGLVQAGGSLRLSCAASGSIFLIYDMGWYRQAPGKEMELVAAISNSVGSTYADSVKGRFTISRDNAKNTVYLQINSLKPEDTAVYYCNADSGPIDGRGGYWGQGTQVTVSS” the “polyreactivity (PSR sort gate)” value was “low polyreactivity”. For “QVQLVESGGGLVQAGGSLRLSCAASGSIFLKYAMGWYRQAPGKERELVAAISSRGGSTYYADSVKGRFTISRDNAKNTVYLQMNSLKPEDTAVYYCAAKRWPGTDGYWGQGTQVTVSS”, the “polyreactivity (PSR sort gate)” value was “high polyreactivity”. In the case of “QVQLVESGGGLVQAGGSLRLSCAASGSIFLNYAMGWYRQAPGNERELVAGISNGGSTNYADSVKGRFTISRDNAKNTVYLQMNSLKPEDTAVYYCARPAYKSRGKRFDYLGQGTQVTVSS”, the “polyreactivity (PSR sort gate)” value is reported as “low polyreactivity”. In the case of “QVQLVESGGGLVQAGGSLRLSCAASGSIFLPYAMGWYRQAPGKEREFVAAIRWSTGRTFYADSVKGRFTISRDNAKNTVYLQMNSLKPEDTAVYYCAAVWPDVRGYDYWGQGTQVTVSS”, the “polyreactivity (PSR sort gate)” value is reported as “high polyreactivity”. In the case of “QVQLVESGGGLVQAGGSLRLSCAASGSIFLRYAMGWYRQAPGKERELVAAITSSGGSTYYADSVKGRFTISRDNAKNTLYLQMNSLKPEDTAVYYCNRYSYLFPYYWKYDYWGQGTQVTVSS”, the “polyreactivity (PSR sort gate)” value is reported as “high polyreactivity”. For “QVQLVESGGGLVQAGGSLRLSCAASGSIFLSNAMGWYRQAPGKERELVAAISRRGASTYYADSVKGRFTISRDNAKNTVYLQMNSLKPEDTAVYYCAARSYSAYGYNYWGQGTQVTVSS”, the “polyreactivity (PSR sort gate)” value was “high polyreactivity”. For “QVQLVESGGGLVQAGGSLRLSCAASGSIFLSNAMVWYRQAPGKERDLVADIDWTGGDTYYADSVKGRFTISRDNAKNTVYLQMNSLKPEDTAVYYCAADYGSRNLLTEYGYWGQGTQVTVSS”, the “polyreactivity (PSR sort gate)” value was “low polyreactivity”. For “QVQLVESGGGLVQAGGSLRLSCAASGSIFLSNMGWYRQAPGKERELVAAISRNGGSTYYADSVKGRFTISRDNAKYSVYLQMNSLKPEDTAVYYCAVQRYWGQGTQVTVSS”, the “polyreactivity (PSR sort gate)” value was “high polyreactivity”. For “QVQLVESGGGLVQAGGSLRLSCAASGSIFLTYAMGWYRQAPGKERELVAAITDSDGSTSYADSVKGRFTISRDNAKNTVYLQMNSLKPEDTAVYYCAKDFPGRRPPKDPSAFYYWGQGTQVTVSS”, the “polyreactivity (PSR sort gate)” value was “low polyreactivity”. For “QVQLVESGGGLVQAGGSLRLSCAASGSIFLVYAMGWYRQAPGKERELVAVITKSGGSTYYADSVKGRFTISRDNAKNTVYLQMNSLKPEDTAVYYCAARRRGARHDYWGQGTQVTVSS”, the “polyreactivity (PSR sort gate)” value was “high polyreactivity”. In the case of “QVQLVESGGGLVQAGGSLRLSCAASGSIFLWNAMGWYRQAPGKEREFVASITSRGGSTYYADSVKGRFTISRDNAKNTVYLQMNSLKPEDTAVYYCAAVRSKYWYYQGGYSSYGYWGQGTQVTVSS”, the “polyreactivity (PSR sort gate)” value is reported as “high polyreactivity”. For “QVQLVESGGGLVQAGGSLRLSCAASGSIFLWNAMGWYRQAPGKERELVAAISSGTSTNYADSVKGRFTISRDNANNTVYLQMNSLKPEDTAVYYCAARGRKNQRRYGYWGQGTQVTVSS”, the “polyreactivity (PSR sort gate)” value was “low polyreactivity”. For “QVQLVESGGGLVQAGGSLRLSCAASGSIFLYNAMGWYRQAPGKERELVAAISKSGGSTYYADSVKGRFTISRDNAKNTVYLQMNSLIPEDTAVYYCAAGYCRRIRYGSEYDYWGQGTQVTVSS”, the “polyreactivity (PSR sort gate)” value was “low polyreactivity”. For “QVQLVESGGGLVQAGGSLRLSCAASGSIFLYNAMGWYRQAPGKERELVATITYIGGRTYYADSVKGRFTISRDNAKNTVYLQMNSLKPEDTAVYYCAAEYYVISSPSFYEYDYWGQGTQVTVSS”, the “polyreactivity (PSR sort gate)” value was “low polyreactivity”. In the case of “QVQLVESGGGLVQAGGSLRLSCAASGSIFNANAMGWYRQAPGKERELVARITRGGRTNYADSVKGRFTISLDNAKNSVYLQMNSLKPEDTAVYYCAAVYYVGFPHKYDYWGQGTQVTVSS”, the “polyreactivity (PSR sort gate)” value is reported as “low polyreactivity”. In the case of “QVQLVESGGGLVQAGGSLRLSCAASGSIFNAYAMGWYRQAPGKERELVAAISKRTSYADSVKGRFTISRDNAKNTVYLQMNSLKPEDTAVYYCANEVDEPDGYEYDYWGQGTQVTVSS”, the “polyreactivity (PSR sort gate)” value is reported as “low polyreactivity”. With “QVQLVESGGGLVQAGGSLRLSCAASGSIFNGYDMGWYRQAPGKERELVAAISLSGDSTYYADSVKGRFTISRDNAKNTVYLQMNSLKPEDTAVYYCAAADYFRSYWGQGTQVTVSS” the “polyreactivity (PSR sort gate)” value was “low polyreactivity”.
